Data as given in article PMC4521584, “MutS/MutL crystal structure reveals that the MutS sliding clamp loads MutL onto DNA”.

Columns and labels:
MutS WT;MutL WT = MutS WT;MutL WT (Escherichia coli?;Escherichia coli?, UniProt P23909;P23367 1-853;1-615, |); assay: SPR; 1 mM ATP, end-blocked; MutL binds preformed MutS clamp; SPR: 25 mM Hepes pH 7.5, 150 mM KCl, 5 mM MgCl2, 1 mM DTT, 0.05% Tween-20, 1 mM ATP (+20% glycerol for MutL-MutS assay); FP: same but 50 mM KCl, no ATP (+10% glycerol for full-length MutL); stopped-flow: 150 mM KCl, 10 uM ADP +/- 1 mM ATP, 15 C; FRET: 25 mM Hepes pH 7.2, 150 mM KCl, 5 mM MgCl2; conditions: protein: recombinant;recombinant; tags: ;His6; chain copies: 2;2; label: biotin at one end (immobilized), fluorescein at the other; blunt, one G:T mismatch
MutS WT = molecular target: T1, MutS WT (UniProt P23909 1-853); assay: SPR; 1 mM ATP, end-blocked with anti-fluorescein Fab; sliding clamp; SPR: 25 mM Hepes pH 7.5, 150 mM KCl, 5 mM MgCl2, 1 mM DTT, 0.05% Tween-20, 1 mM ATP (+20% glycerol for MutL-MutS assay); FP: same but 50 mM KCl, no ATP (+10% glycerol for full-length MutL); stopped-flow: 150 mM KCl, 10 uM ADP +/- 1 mM ATP, 15 C; FRET: 25 mM Hepes pH 7.2, 150 mM KCl, 5 mM MgCl2; conditions: protein: recombinant; chain copies: 2; label: biotin at one end (immobilized), fluorescein at the other; blunt, one G:T mismatch
T1 sequence: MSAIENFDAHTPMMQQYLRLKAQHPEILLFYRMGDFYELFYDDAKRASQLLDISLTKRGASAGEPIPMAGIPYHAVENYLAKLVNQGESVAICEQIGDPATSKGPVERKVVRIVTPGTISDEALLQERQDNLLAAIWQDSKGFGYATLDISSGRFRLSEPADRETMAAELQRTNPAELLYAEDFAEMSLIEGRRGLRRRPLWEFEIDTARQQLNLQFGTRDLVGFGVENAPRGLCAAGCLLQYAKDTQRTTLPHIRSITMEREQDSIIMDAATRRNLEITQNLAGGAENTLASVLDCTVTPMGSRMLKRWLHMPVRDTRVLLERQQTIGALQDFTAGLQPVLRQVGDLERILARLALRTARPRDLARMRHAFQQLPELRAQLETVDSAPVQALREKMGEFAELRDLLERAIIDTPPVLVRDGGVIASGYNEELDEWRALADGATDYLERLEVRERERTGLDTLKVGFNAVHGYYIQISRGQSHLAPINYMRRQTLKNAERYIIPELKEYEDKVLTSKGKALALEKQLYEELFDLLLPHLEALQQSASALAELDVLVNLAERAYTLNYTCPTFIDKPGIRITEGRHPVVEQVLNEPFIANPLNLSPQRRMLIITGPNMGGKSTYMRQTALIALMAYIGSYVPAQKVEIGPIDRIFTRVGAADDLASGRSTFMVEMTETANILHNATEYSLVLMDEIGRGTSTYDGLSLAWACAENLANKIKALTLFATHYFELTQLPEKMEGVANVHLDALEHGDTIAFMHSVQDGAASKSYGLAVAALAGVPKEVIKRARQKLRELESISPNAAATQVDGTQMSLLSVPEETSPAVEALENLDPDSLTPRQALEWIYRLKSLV

MutSΔC800 D246C [1] = molecular target: T2, MutSΔC800 D246C (UniProt P23909 1-800, D246C); assay: SPR; 1 mM ATP, 150 mM KCl; fast off-rate; SPR: 25 mM Hepes pH 7.5, 150 mM KCl, 5 mM MgCl2, 1 mM DTT, 0.05% Tween-20, 1 mM ATP (+20% glycerol for MutL-MutS assay); FP: same but 50 mM KCl, no ATP (+10% glycerol for full-length MutL); stopped-flow: 150 mM KCl, 10 uM ADP +/- 1 mM ATP, 15 C; FRET: 25 mM Hepes pH 7.2, 150 mM KCl, 5 mM MgCl2; conditions: protein: recombinant; chain copies: 2; label: biotin at one end (immobilized), fluorescein at the other; blunt, one G:T mismatch
T2 sequence: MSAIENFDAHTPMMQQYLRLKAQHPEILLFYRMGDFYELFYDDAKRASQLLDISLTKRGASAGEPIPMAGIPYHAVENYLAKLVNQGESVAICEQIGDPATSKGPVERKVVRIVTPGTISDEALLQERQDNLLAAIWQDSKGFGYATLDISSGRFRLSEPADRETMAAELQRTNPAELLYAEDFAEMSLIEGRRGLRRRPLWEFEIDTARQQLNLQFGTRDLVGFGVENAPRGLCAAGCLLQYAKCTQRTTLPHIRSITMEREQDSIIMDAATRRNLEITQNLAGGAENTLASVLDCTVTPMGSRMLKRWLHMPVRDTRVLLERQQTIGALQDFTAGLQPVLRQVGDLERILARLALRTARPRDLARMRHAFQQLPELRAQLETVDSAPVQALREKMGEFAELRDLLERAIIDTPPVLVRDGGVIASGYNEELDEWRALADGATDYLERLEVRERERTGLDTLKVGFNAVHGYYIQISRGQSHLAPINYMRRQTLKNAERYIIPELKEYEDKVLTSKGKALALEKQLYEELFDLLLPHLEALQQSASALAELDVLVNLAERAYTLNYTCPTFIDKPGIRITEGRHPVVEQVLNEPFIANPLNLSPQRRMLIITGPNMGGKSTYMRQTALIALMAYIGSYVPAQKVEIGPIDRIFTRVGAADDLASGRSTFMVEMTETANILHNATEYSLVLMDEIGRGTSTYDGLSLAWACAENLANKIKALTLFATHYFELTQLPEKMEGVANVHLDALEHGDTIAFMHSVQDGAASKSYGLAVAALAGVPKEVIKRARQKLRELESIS

MutLLN40 N131C = MutLLN40 N131C (UniProt P23367 1-349, N131C); assay: SPR; 1 mM ATP, 150 mM KCl; SPR: 25 mM Hepes pH 7.5, 150 mM KCl, 5 mM MgCl2, 1 mM DTT, 0.05% Tween-20, 1 mM ATP (+20% glycerol for MutL-MutS assay); FP: same but 50 mM KCl, no ATP (+10% glycerol for full-length MutL); stopped-flow: 150 mM KCl, 10 uM ADP +/- 1 mM ATP, 15 C; FRET: 25 mM Hepes pH 7.2, 150 mM KCl, 5 mM MgCl2; conditions: protein: recombinant; tags: His; label: biotin at one end (immobilized), fluorescein at the other; blunt, one G:T mismatch
MutSΔC800 D246C [2] = molecular target: T2, MutSΔC800 D246C; assay: SPR; 1 mM ATP; fitted maximum response 104 RU; SPR: 25 mM Hepes pH 7.5, 150 mM KCl, 5 mM MgCl2, 1 mM DTT, 0.05% Tween-20, 1 mM ATP (+20% glycerol for MutL-MutS assay); FP: same but 50 mM KCl, no ATP (+10% glycerol for full-length MutL); stopped-flow: 150 mM KCl, 10 uM ADP +/- 1 mM ATP, 15 C; FRET: 25 mM Hepes pH 7.2, 150 mM KCl, 5 mM MgCl2; conditions: protein: recombinant; chain copies: 2; label: immobilized for SPR; blunt, one G:T mismatch
[3] = molecular target: MutLLN40 N131C R162E/R266E/R316E (UniProt P23367 1-349, N131C;R162E;R266E;R316E); assay: fluorescence polarization; 50 mM KCl; binding completely abolished; SPR: 25 mM Hepes pH 7.5, 150 mM KCl, 5 mM MgCl2, 1 mM DTT, 0.05% Tween-20, 1 mM ATP (+20% glycerol for MutL-MutS assay); FP: same but 50 mM KCl, no ATP (+10% glycerol for full-length MutL); stopped-flow: 150 mM KCl, 10 uM ADP +/- 1 mM ATP, 15 C; FRET: 25 mM Hepes pH 7.2, 150 mM KCl, 5 mM MgCl2; conditions: protein: recombinant; tags: His; label: 5' TAMRA; blunt
MutSΔC800 D246C;MutL WT = MutSΔC800 D246C;MutL WT (Escherichia coli?;Escherichia coli?, UniProt P23909;P23367 1-800;1-615, D246C|); assay: stopped-flow FRET and FP; 400 nM MutL mixed, 1 mM ATP; more binding at equilibrium than MutSΔC800 alone; SPR: 25 mM Hepes pH 7.5, 150 mM KCl, 5 mM MgCl2, 1 mM DTT, 0.05% Tween-20, 1 mM ATP (+20% glycerol for MutL-MutS assay); FP: same but 50 mM KCl, no ATP (+10% glycerol for full-length MutL); stopped-flow: 150 mM KCl, 10 uM ADP +/- 1 mM ATP, 15 C; FRET: 25 mM Hepes pH 7.2, 150 mM KCl, 5 mM MgCl2; conditions: protein: recombinant;recombinant; tags: ;His6; chain copies: 2;2; label: FRET: Alexa Fluor 594 on top T11 and Alexa Fluor 488 on bottom T10; FP: 5' TAMRA on top; blunt, one G:T mismatch
MutSΔC800 D246C [4] = molecular target: T2, MutSΔC800 D246C; assay: stopped-flow FRET and FP; 10 uM ADP, no ATP; binding with kinking; SPR: 25 mM Hepes pH 7.5, 150 mM KCl, 5 mM MgCl2, 1 mM DTT, 0.05% Tween-20, 1 mM ATP (+20% glycerol for MutL-MutS assay); FP: same but 50 mM KCl, no ATP (+10% glycerol for full-length MutL); stopped-flow: 150 mM KCl, 10 uM ADP +/- 1 mM ATP, 15 C; FRET: 25 mM Hepes pH 7.2, 150 mM KCl, 5 mM MgCl2; conditions: protein: recombinant; chain copies: 2; label: FRET: Alexa Fluor 594 on top T11 and Alexa Fluor 488 on bottom T10; FP: 5' TAMRA on top; blunt, one G:T mismatch

B1: 100-bp G:T mismatch DNA (dsDNA)
DNA 1: AAACAGGCTTAGGCTGGAGCTGAAGCTTAGCTTAGGATCATCGAGGATCGAGCTCGGTGCAATTCAGCGGTACCCAATTCGCCCTATAGGCATCCAGGTT
DNA 2: AACCTGGATGCCTATAGGGCGAATTGGGTACCGCTGAATTGCACCGAGCTTGATCCTCGATGATCCTAAGCTAAGCTTCAGCTCCAGCCTAAGCCTGTTT
binding result (MutS WT;MutL WT): binds
binding result (MutS WT): binds
binding result (MutSΔC800 D246C [1]): binds
binding result (MutLLN40 N131C): no binding

B2: 41-bp G:T mismatch DNA (dsDNA)
DNA 1: ATAGGACGCTGACACTGGTGCTTGGCAGCTTCTAATTCGAT
DNA 2: ATCGAATTAGAAGCTGCCAGGCACCAGTGTCAGCGTCCTAT
binding result (MutSΔC800 D246C [2]): binds

B3: 41-bp homoduplex, TAMRA (dsDNA)
DNA 1: ATAGGACGCTGACACTGGTGCTTGGCAGCTTCTAATTCGAT
DNA 2: ATCGAATTAGAAGCTGCCAAGCACCAGTGTCAGCGTCCTAT
binding result [3]: no binding

B4: 45-bp G:T mismatch DNA (dsDNA)
DNA 1: GTCATCCTCGTCTCAAGCTGCCAGGCACCAGTGTCAGCGTCCTAT
DNA 2: ATAGGACGCTGACACTGGTGCTTGGCAGCTTGAGACGAGGATGAC
binding result (MutSΔC800 D246C;MutL WT): binds
binding result (MutSΔC800 D246C [4]): binds
